Measurements reported in publication PMC5636753, “Structural basis for DAXX interaction with ATRX” (Protein & Cell, 2017).
Positions count from the first letter of the chain named. Names may count otherwise. Like-named read-outs stand apart in the source and are kept apart here.

B1: DAXX helical bundle (DHB) domain, DAXX_(55–144) (domain or fragment, UniProt Q9UER7 55-144, looked up)
chain: GKKCYKLENEKLFEEFLELCKMQTADHPEVVPFLYNRQQRAHSLFLASAEFCNILSRVLSRARSRPAKLYVYINELCTVLKAHSAKKKLN
notes: death-domain associated protein (DAXX), N-terminal DAXX helical bundle (DHB) domain; model of the crystal covers residues 57-141; Limits 55-144 are printed for the mutagenesis panel; Crystals were selenomethionine-substituted; also called DAXXDHB; DAXX DHB
B2: ATRX_(1,253–1,326) (domain or fragment)
chain: SVPVTVDDDDDDNDPENRIAKKMLLEEIKANLSSDEDGSSDDEPEEGKKRTGKQNEENPGDEEAKNQVNSESDS
B3: ATRX A1272R (protein)
chain: B2 chain with A20R
B4: ATRX L1276A (protein)
chain: B2 chain with L24A
B5: ATRX L1277R (protein)
chain: B2 chain with L25R
B6: ATRX I1280A (protein)
chain: B2 chain with I28A
B7: ATRX I1280R (protein)
chain: B2 chain with I28R
B8: ATRX L1276A/I1280A (protein)
chain: B2 chain with L24A, I28A
B9: ATRX I1280Q (protein)
chain: B2 chain with I28Q
B10: ATRX L1276R (protein)
chain: B2 chain with L24R
B11: ATRX L1276Q (protein)
chain: B2 chain with L24Q

Legend:
[1] = target: T1, ATRX_(1,188–1,326) (UniProt P46100 1188-1326); test: ITC; isothermal titration calorimetry of ATRX fragments with DAXXDHB; conditions not shown (methods in the supplement); conditions: both partners purified
T1 construct: Alpha-thalassemia/mental retardation syndrome X-linked protein (ATRX), residues 1188-1326
T1 sequence (looked up): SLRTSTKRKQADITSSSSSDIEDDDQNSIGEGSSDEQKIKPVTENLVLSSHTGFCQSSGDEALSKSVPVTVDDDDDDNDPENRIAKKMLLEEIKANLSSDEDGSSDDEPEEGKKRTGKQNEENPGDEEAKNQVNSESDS

[2] = target: T2, DAXX helical bundle (DHB) domain, DAXX_(55–144) (UniProt Q9UER7 55-144); test: ITC
T2 chain: B1 chain

[3] = target: T2, DAXX helical bundle (DHB) domain, …; test: ITC
[4] = target: T3, DAXX F87A (Homo sapiens); test: ITC
T3 chain: B1 chain with F33A

[5] = target: T4, DAXX V125A (Homo sapiens); test: ITC
T4 chain: B1 chain with V71A

[6] = target: T5, DAXX Y124A (Homo sapiens); test: ITC
T5 chain: B1 chain with Y70A

[7] = target: T6, DAXX I127A (Homo sapiens); test: ITC
T6 chain: B1 chain with I73A

[8] = target: T7, DAXX V84A (Homo sapiens); test: ITC
T7 chain: B1 chain with V30A

[9] = target: DAXX helical bundle (DHB) domain, DAXX_(55–144) (UniProt Q9UER7); test: ITC; isothermal titration calorimetry of ATRX fragments with DAXXDHB; conditions not shown (methods in the supplement)

Binder	Kd [2] [nM]	also measured
B1	–	Kd [1]: 160 nM
AAAAANDPENRIAKKMLLEEIKANLSSDED [ATRX 1,260–1,289 M1 (D1260A/D1261A/D1262A/D1263A/D1264A)]	850	–
B2	160	Kd [3]: 170 nM; Kd [4]: 2190 nM; Kd [5]: 280 nM; Kd [6]: 5920 nM; Kd [7]: 810 nM; Kd [8]: 2040 nM
B3	1040	–
B4	8330	–
B5	970	–
B6	400	–
B7	34800	–
B8	12000	–
B9	7350	–
B10	73500	–
B11	43300	–
ENRIAKKMLLEEIKANLSSDED (domain or fragment) [ATRXDBM with deletion of N-terminal eight residues]	10300	fold decrease in affinity against ATRXDBM [9]: 60 fold
DDDDDNDPENRIAKKMLLEEIKANLSSDED (domain or fragment) [DAXX-binding motif of ATRX, ATRX_(1,260–1,289)]	160	–
DDDDDNAPANRIAKKMLLEEIKANLSSDED [ATRX 1,260–1,289 M2 (D1266A/E1268A)]	1750	–
